In patent US20240218024A1, “METHODS AND COMPOSITIONS FOR TREATMENT OF VIRAL INFECTION” (TECHNION RESEARCH & DEVELOPMENT FOUNDATION LIMITED, priority 2021, published 2024):

Legend:
BL21-DE3 E. coli cells = experiment: slncRNA and tdPCP-mCherry expression in bacteria (puncta, burst analysis, flow cytometry); format: cell-based; conditions: slncRNA co-expressed with tdPCP-mCherry, overnight induction
[1] = Temporal tracking of individual SRNP granules in vitro (burst analysis); format: physicochemical; conditions: SRNP granules with tdPCP-mCherry, 60 minutes tracking
Method: To test whether the synthetic granules display this characteristic, we tracked the fluorescence intensity of each granule in a given field-of-view for 60 minutes. The brightness of each granule was analyzed at every time point using a customized analysis algorithm (see Supplementary Methods). The resulting signals are either decreasing or increasing in overall intensity, and dispersed within them are sharp variations in brightness, that are also either increasing or decreasing. Next, we employed a statistical threshold which flagged these signal variation events, or “signal bursts”, whose amplitude was determined to not be part of the underlying signal distribution (p-value<1e-3) (See Supplementary Methods for definitions of bursts, algorithm details, and relevant numerical controls). The events were classified as either increasing bursts (green), decreasing bursts (red), or non-classified segments (blue), which are segments where molecular movement cannot be discerned from the noise (FIG. 8A). For each detected burst, its amplitude (A intensity) and duration (A time) were measured, in addition to measuring the time between bursts and the order of their appearance. In FIG. 8B the distributions of amplitudes for all three event types were plotted, obtained from ˜156 signal traces, each gathered from a different granule composed of PCP-14×/MCP-15× and tdPCP-mCherry. We observe a bias towards negative burst or shedding events. Assuming an interpretation that fluorescent burst events correspond to insertion and shedding events of slncRNA-CP complexes into or out of the synthetic granules, the amplitude bias towards negative events is consistent with RNA degradation and lack of transcription within the in vitro suspension, leading to a net shedding of slncRNA molecules out of the granules over time.
The tracking data, (x,y,t coordinates of the bright spots centroids), together with the raw microscopy images were fed to a custom built Matlab (The Mathworks, Natick, MA) script designed to normalize the relevant spot data. Normalization was carried out as follows: for each bright spot, a 14-pixel wide sub-frame was extracted from the field of view, with the spot at its center. Each pixel in the sub-frame was classified to one of three categories according to its intensity value. […]
We assume the total fluorescence is comprised of three distinct signal processes: RNP granule fluorescence, background fluorescence and noise. We further assume that background fluorescence is slowly changing, as compared with granule fluorescence which depends on the dynamic and frequent insertion and shedding events occurring in the droplet. […] To identify such shifts in the base-line fluorescence intensity, we use a moving-average filter of 13 points (i.e., 2 minutes) to smooth the data. […]

[2] = In vitro slncRNA and slncRNA-protein granule formation (fluorescence microscopy); format: physicochemical
[3] = SRNP granules with tdPCP-mCherry

B1: PCP-4×/QCP-5×: class II slncRNA, four native PCP binding sites and five native QB coat protein hairpins (SEQ ID NO: 29) (nucleic acid)
chain: GAGAAACCTAGGCGATTATGACGTTATTCTACTTTGATTGTGATGCATGTCTAAGACAGCATCGCCTGCTGGTCGTGACTAAGGAGTTTATATGGAAACCCTTACGAGACAATGCTACCTTACCGGTCGGGCCCACTTGTTTTTACCCATGATGCATGTCTAAGACAGCATCGCCTGCTGGTCGTGACTAAGGAGTTTATATGGAAACCCTTAGAAACAGCCGTCGCCTTGAAGCCGAGAACAATGCATGTCTAAGACAGCATATGGATTGCCTGTCTGTTAAGGAGTTTATATGGAAACCCTTACATCAGGCTTCGCAGTATGCAACGCTTGCGATGCATGTCTAAGACAGCATTTCACCGCTTTCCTAAGTAAGGAGTTTATATGGAAACCCTTAGTACTAACTCGCAGATGCATGTCTAAGACAGCATCAGAAACGTCACGTCCTGGCTGTCGA
With B1 the “puncta formation in cells” value (BL21-DE3 E. coli cells) was “formation of bright puncta at the cell poles”.

B2: PCP-3×/MCP-3×: class II slncRNA with three PCP binding sites spaced by non-PCP hairpins (SEQ ID NO: 25) (nucleic acid)
chain: GAGAAACGTTTCGACATTATATGGAATGCGAAAGTGGAACGTAATGGACATGAAGACGATTACGCTTCACACGGAGGATGCGGGAAACATGAAGATCACCCACGCTTAACCATGGATAGGGATCACCCATGTTGCGGTGGTGCGTCAACCAGAGATTTCATATGGGAAACTCTGGGACACGCTGTATTTATACATGAGGATCACCATGTGTGCTTAAATATGGGTAAGTTGACCATTAGGCAACTGTAAGATGCTCCGGTTAATTCCAGTTTATATGGAAACGGAATTGATGTACCGTTGAGCAAGAACACGATTACGGTTCTTCGATTAGATATGGGGTGGGAGGTAGAGGGATTCTCGCGAGAAGA
With B2 the “ratio between mean granule fluorescence and mean burst amplitude, red channel (protein)” value [1] was “approximately equal to that of the green channel”.

B3: PCP-14×/MCP-15×: class II slncRNA with fourteen PCP binding sites spaced by hairpins that do not bind PCP (SEQ ID NO: 28) (nucleic acid)
chain: GAGAAACGTTTCGACATTATATGGAATGCGAAAGTGGAACGTAATGGACATGAAGACGATTACGCTTCACACGGAGGATGCGGGAAACATGAAGATCACCCATGTTCGCTTAACCATGGATAGGGATCACCCATGTTGCGGTGGTGCGTCAACCAGAGATTTCATATGGGAAACTCTGGGACACGCTGTATTTATACATGAGGATCACCATGTGTGCTTAAATATGGGTAAGTTGACCATTAGGCAACTGTAAGATGCTCCGGTTAATTCCAGTTTATATGGAAACGGAATTGATGTACCGTTGAGCAAGAACACGATTACGGTTCTTCGATTAGATATGGTTTAAACGACAATATATGGATTGCGTTTTGGGGCACGCCGTCTGGAGAAGACCATTAGGCTTCTTTACTGCGACCGCAATAAAAGGAGATTATATGAAATCCCTTTGCGCGCAACCGGGTAGAAGATCACCATTAGGGATCTGTAACTCACGGCGCTATTACGAGTCAATATGGTGACCGTAAAGCTAGGGCATGTGCCAGAAGAGCATTAGCCTTCTCCTTGGTGGGGAAGCGATAAGCACATTATAAGGAATGGCTTAAAGTGGTGCGGCGGGGGACTTGACCATTAGGCAAGTGTGCTAGACCCTGGTCTTTTCGAGAAAATATGGTTTCCGAAAGAACTATACGAAGTGACATGCGAGGATTACCCGCATATGGTGCAAATGGGAGAATTGGAGTAAATATGGTTACCCAATAGGCTAGAGCATGACGGCAGTGAGAATTATCCACTGGTTAGCGGGTTACCGAGATTGCACATTATATGGAATGGCAATTGATTCATGCCGGTCGTTTGTGAGGAGTACCCACAAAATGGGAGGGTGCTATATAACCAGGTTATATGCAACCGGTTAGGCCGTTGTGTTAGTTTAGTTCAGCATTAGCGAACTGTGCAAGACCCGGTGGCTAAGGAGTTTATATGGAAACCCTTAGCCCTCGAGCATGCTAACATGAGGATTACCCATGTGATGGGTTTGAAACGTGCAATTATTTGATATGGCAAAAATTGGGTAGGGCATGGCTGCAGCGTGAGAATTATCCACGCTAGGCTAGAGCATGGCGGTATTGAGTTCGGGTTTGAGATGACCATTAGGCATCTGTGCTAGAGCATGCGAAAACGACATAATATGGTATGCGTTTTGGGGTGCTAGTATACCACATGATGAGCACACATGTATGGGTGGGAGGTAGAGGGATTCTCGCGAGAAGA
For B3, the “median mCherry fluorescence of SRNP granules, brighter than PCP-4×/MCP-4× granules” value [2, 3] was roughly 3 times, the “median mCherry fluorescence of SRNP granules, brighter than PCP-8× granules” value [2, 3] was greater than 2 fold and the “slncRNA and protein concentrations at which puncta like structures were detected” value ([2]; SRNP granules with tdPCP-mCherry, both components varied over two orders of magnitude) was no less than 100 ng/µL. For the same molecule, the “Poisson parameter λ best fit of condensate fluorescence intensity distribution” value ([2]; slncRNA-only condensates) was 3-5 and the “ratio between mean granule fluorescence and mean burst amplitude, red channel (protein)” value [1] was “approximately equal to that of the green channel”.

B4: PCP-4×/MCP-4×: class II slncRNA with four PCP binding sites spaced by non-PCP hairpins (SEQ ID NO: 26) (nucleic acid)
chain: GAGAAACGTTTCGACATTATATGGAATGCGAAAGTGGAACGTAATGGACATGAAGACGATTACGCTTCACACGGAGGATGCGGGAAACATGAAGATCACCCATGTTCGCTTAACCATGGATAGGGATCACCCATGTTGCGGTGGTGCGTCAACCAGAGATTTCATATGGGAAACTCTGGGACACGCTGTATTTATACATGAGGATCACCATGTGTGCTTAAATATGGGTAAGTTGACCATTAGGCAACTGTAAGATGCTCCGGTTAATTCCAGTTTATATGGAAACGGAATTGATGTACCGTTGAGCAAGAACACGATTACGGTTCTTCGATTAGATATGGTTTAAACGACAATATATGGATTGCGTTTTGGGGCACGCCGTCTGGAGAAGACCATTAGGCTTCTTTACTGCGATGGGTGGGAGGTAGAGGGATTCTCGCGAGAAGAA
For B4, the “ratio between mean granule fluorescence and mean burst amplitude, red channel (protein)” value [1] was “approximately equal to that of the green channel”.

B5: PCP-8×: class I slncRNA with eight PCP binding hairpins (SEQ ID NO: 27) (nucleic acid)
chain: GAGAAACGTTTCGACATTATATGGAATGCGAAACACGGAGGATGCGGGAAACATGAAGATCACCCATGTTCGCTTAACCATGGATAGGGATCACCCATGTTGCGGTGGTGCGTCAACCAGAGATTTCATATGGGAAACTCTGGGACACGCTGTATTTATACATGAGGATCACCATGTGTGCTTAAATATGGGTAATTCCAGTTTATATGGAAACGGAATTAGGCTAGAGCATGGCGGTATTGAGTTCGGGTTTGAAACGACAATATATGGATTGCGTTTTGGGGCACGCCGTCTGGAAAGGAGATTATATGAAATCCCTTTGCGCGCAACCGGGTAGATACGAGTCAATATGGTGACCGTACCTTGGTGGGGAAGCGATAAGCACATTATAAGGAATGGCTTAGTGCTAGACCCTGGTCTTTTCGAGAAAATATGGTTTCCGAAAATGGGTGGGAGGTAGAGGGATTCTCGCGAGAAGAA
For B5, the “ratio between mean granule fluorescence and mean burst amplitude, red channel (protein)” value [1] was roughly 2.
